Results taken from publication PMC9530208, “MutS functions as a clamp loader by positioning MutL on the DNA during mismatch repair”.

Columns and labels:
MutL (Escherichia coli) = MutL (Escherichia coli) (UniProt P23367); experiment: smTIRF; settings: ATP, no MutS, 10 mM NaCl, 10 nM MutL; single mismatch; smTIRF: 20 mM Tris-HCl pH 7.5, 0.1 mM DTT, 0.2 mg/mL acetylated BSA, 0.0025% P-20, 5 mM MgCl2, 100 mM NaCl (Buffer C), 1 mM ATP or AMP-PNP; NaCl varied …; scale: fraction of DNA molecules with MutL sliding clamp
[1] = target: MutL(R-E) R162E;R266E;R316E (Escherichia coli) (UniProt P23367); experiment: smTIRF; settings: 30 mM NaCl, 2 nM protein; single mismatch; smTIRF: 20 mM Tris-HCl pH 7.5, 0.1 mM DTT, 0.2 mg/mL acetylated BSA, 0.0025% P-20, 5 mM MgCl2, 100 mM NaCl (Buffer C), 1 mM ATP or AMP-PNP; NaCl varied …; scale: fold fewer binding events than wild-type MutL
[2] = system: MutL(R266E) (Escherichia coli); experiment: smTIRF; settings: 30 mM NaCl, 2 nM protein; single mismatch; smTIRF: 20 mM Tris-HCl pH 7.5, 0.1 mM DTT, 0.2 mg/mL acetylated BSA, 0.0025% P-20, 5 mM MgCl2, 100 mM NaCl (Buffer C), 1 mM ATP or AMP-PNP; NaCl varied …; scale: fold fewer binding events than wild-type MutL
[3] = target: MutS;MutL (Escherichia coli;Escherichia coli) (UniProt P23367); experiment: smTIRF; settings: ATP, 10 nM MutL, single mismatch, smTIRF: 20 mM Tris-HCl pH 7.5, 0.1 mM DTT, 0.2 mg/mL acetylated BSA, 0.0025% P-20, 5 mM MgCl2, 100 mM NaCl (Buffer C), 1 mM ATP or AMP-PNP, NaCl varied …, scale: fraction of DNA molecules with MutL sliding clamp
MutS-bio;MutL = MutS-bio;MutL (Escherichia coli;Escherichia coli, UniProt P23909;P23367 1-853;1-615, |); experiment: smTIRF; ATP; immobilized MutS-bio, MutL co-localization lifetime 29 +/- 2 s; smTIRF: 20 mM Tris-HCl pH 7.5, 0.1 mM DTT, 0.2 mg/mL acetylated BSA, 0.0025% P-20, 5 mM MgCl2, 100 mM NaCl (Buffer C), 1 mM ATP or AMP-PNP; NaCl varied 10-100 mM; Mg2+ omitted for MutL-only binding per reviewer comment; temperature not given; settings: protein: recombinant;recombinant; chain copies: 2;2; label: 5'-biotin on both strands; blunt, single G/T mismatch at position 32 of strand 1

Row | Molecule | binding signal (MutL (Escherichia coli)) | binding signal [1] | binding signal [2] | binding signal ([3]; loaded at 10 mM NaCl) | binding signal ([3]; loaded at 100 mM NaCl) | binding result (MutS-bio;MutL)
1 | 18.4-kb mismatched DNA | 0.25 | 30 | 3 | 0.567 | 0.073 | –
2 | 59-bp mismatched DNA (dsDNA) DNA 1: CGCGGGTTTTCGCTATTTATGAAAATTTTCCGGTTTAAGGCGTTTCCGTTCTTCTTCGT DNA 2: ACGAAGAAGAACGGAAACGCCTTAAACTGGAAAATTTTCATAAATAGCGAAAACCCGCG | – | – | – | – | – | binds
